Test results from IntAct's records for PubMed 20696397.

B1: E3 ubiquitin-protein ligase RING2 (Homo sapiens), Q99496 (parent)
chain: MSQAVQTNGTQPLSKTWELSLYELQRTPQEAITDGLEIVVSPRSLHSELMCPICLDMLKNTMTTKECLHRFCADCIITALRSGNKECPTCRKKLVSKRSLRPDPNFDALISKIYPSRDEYEAHQERVLARINKHNNQQALSHSIEEGLKIQAMNRLQRGKKQQIENGSGAEDNGDSSHCSNASTHSNQEAGPSNKRTKTSDDSGLELDNNNAAMAIDPVMDGASEIELVFRPHPTLMEKDDSAQTRYIKTSGNATVDHLSKYLAVRLALEELRSKGESNQMNLDTASEKQYTIYIATASGQFTVLNGSFSLELVSEKYWKVNKPMELYYAPTKEHK
partner: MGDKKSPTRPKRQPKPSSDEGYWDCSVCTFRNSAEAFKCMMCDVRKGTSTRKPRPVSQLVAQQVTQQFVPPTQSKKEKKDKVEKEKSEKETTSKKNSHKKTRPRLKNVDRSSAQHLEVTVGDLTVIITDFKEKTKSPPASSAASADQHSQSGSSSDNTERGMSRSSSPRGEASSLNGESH
B2: Chromobox protein homolog 7 (Homo sapiens), O95931 (parent)
chain: MELSAIGEQVFAVESIRKKRVRKGKVEYLVKWKGWPPKYSTWEPEEHILDPRLVMAYEEKEERDRASGYRKRGPKPKRLLLQRLYSMDLRSSHKAKGKEKLCFSLTCPLGSGSPEGVVKAGAPELVDKGPLVPTLPFPLRKPRKAHKYLRLSRKKFPPRGPNLESHSHRRELFLQEPPAPDVLQAAGEWEPAAQPPEEEADADLAEGPPPWTPALPSSEVTVTDITANSITVTFREAQAAEGFFRDRSGKF

Variants of: B1
Settings: with YAF2, Q8IY57-1

Variant | effect of a mutation on the interaction
Y262A | disrupting interaction
H258A | disrupting interaction

Variants of: B2
Settings: with ring2_human RNF2, Q99496

Variant | effect of a mutation on the interaction
F234D | disrupting interaction
